Laboratory results reported in patent EP2500357A2 (Abbott Laboratories, dated 2012).
Read-outs that look alike come from different tables or passages of the source.

Assays:
Assay in all cases: cell-based or functional assay
recombinant human IL-1β [1] = target: T1, recombinant human IL-1β (human, UniProt P01584 117-269)
recombinant human IL-1α [2] = target: T2, recombinant human IL-1α (human, UniProt P01583 113-271)
T2 sequence (looked up): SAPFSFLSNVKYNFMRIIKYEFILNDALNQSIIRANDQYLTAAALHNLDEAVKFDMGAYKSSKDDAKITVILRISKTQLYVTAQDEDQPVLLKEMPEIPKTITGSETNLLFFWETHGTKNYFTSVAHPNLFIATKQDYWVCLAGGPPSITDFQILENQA

recombinant human IL-1α [3] = target: T2, recombinant human IL-1α; remark: listed apart in the source
recombinant human IL-1β [4] = target: T1, recombinant human IL-1β; remark: listed apart in the source
recombinant human IL-1α [5] = target: T2, recombinant human IL-1α; remark: listed apart in the source

B1: chimeric 13F5.G5 Ab (13F5.G5-VH-Cγ1 / 13F5.G5-VL-Cκ) (antibody, V domains shown)
VH: QVQLQQSGAELVRPGSSVKISCKASGYAFSSYWMNWVKQRPGQGLEWIGQIYPGDGDTNYNGKFKGKATLTADKSSSTSYMQLSGLTSEDSAMYFCVRFPTGNDYYAMDYWGQGTSVTVSS
VL: NIVLTQSPASLAVSLGQRATISCRASESVDSYGNSYMHWYQQKPGQPPKLLIYLASNLESGVPARFSGSGSRTDFTLTIDPVEADDAATYYCQQNNEDPFTFGSGTKLEIKR
Potency (IC50), MRC-5 bioassay (recombinant human IL-1β [1]): 0.53 nM

B2: murine anti-hIL-1α mAb 18F4.2C8 (antibody, V domains shown)
VH: EVQLQQSGAELVKPGASVKLSCTASGLNIKDTYMHWLKQRPEQGLEWIGRIDPANGNAKYDPRFLGKATITADTSSNTAYLQLSSLTSEDTAVYYCARGDGNFHFDYWGQGTTLTVSS
VL: DIVMTQSQRFMSTSVGDRVSVTCKASQNVGTNIAWYQQKPGQSPRALIYSASYRYSGVPDRFTGSGSGTDFTLTISNVQSVDLAEYFCQQYTRYPLTFGGGTKLEIKR
IC50, MRC-5 bioassay (recombinant human IL-1α [2]): 0.33 nM | IC50, inhibition of IL-8 production by MRC-5 cells (recombinant human IL-1α [3]): 0.089 nM

B3: murine anti-hIL-1α mAb 6H3.1A4.3E11 (antibody, V domains shown)
VH: QVQLQQPGAELVRPGASVKLSCKASGYTFTTYWMNWVKQRPEQGLEWIGRIDPYDSETLYSQKFKDTAILTVDKSSSTAYMQLSSLTSEDSAVYYCARYGFDYWGQGTTLTVSS
VL: QIVLTQSPALMSASPGEKVTMTCSASSSVNYMYWYQQKPRSSPKPWIYLTSNLASGVPARFSGSGSGTSYSLTISSMEAEDAATYYCQQWNSNPYTFGGGTKLEMKR
IC50, MRC-5 bioassay (recombinant human IL-1α [2]): 0.24 nM | IC50, inhibition of IL-8 production by MRC-5 cells (recombinant human IL-1α [3]): 0.24 nM

B4: hIL-1a/bDVD3a-Ig (bispecific antibody, human IgG1, kappa)
heavy: not shown
light: DIVMTQSQRFMSTSVGDRVSVTCKASQNVGTNIAWYQQKPGQSPRALIYSASYRYSGVPDRFTGSGSGTDFTLTISNVQSVDLAEYFCQQYTRYPLTFGGGTKLEIKRTVAAPETTVTQSPASLSMAIGEKVTIRCITSTDIDVDMNWYQQKPGEPPKLLISQGNTLRPGVPSRFSSSGSGTDFVFIIENMLSEDVADYYCLQSDNLPLTFGAGTKLELKRTVAAPSVFIFPPSDEQLKSGTASVVCLLNNFYPREAKVQWKVDNALQSGNSQESVTEQDSKDSTYSLSSTLTLSKADYEKHKVYACEVTHQGLSSPVTKSFNRGEC
Potency (IC50), MRC-5 bioassay (recombinant human IL-1α [2]): 0.75 nM

B5: hIL-1a/bDVD4a-Ig (bispecific antibody, human IgG1, kappa)
heavy: not shown
light: DIVMTQSQRFMSTSVGDRVSVTCKASQNVGTNIAWYQQKPGQSPRALIYSASYRYSGVPDRFTGSGSGTDFTLTISNVQSVDLAEYFCQQYTRYPLTFGGGTKLEIKRTVAAPSVFIFPPETTVTQSPASLSMAIGEKVTIRCITSTDIDVDMNWYQQKPGEPPKLLISQGNTLRPGVPSRFSSSGSGTDFVFIIENMLSEDVADYYCLQSDNLPLTFGAGTKLELKRTVAAPSVFIFPPSDEQLKSGTASVVCLLNNFYPREAKVQWKVDNALQSGNSQESVTEQDSKDSTYSLSSTLTLSKADYEKHKVYACEVTHQGLSSPVTKSFNRGEC
Potency (IC50), MRC-5 bioassay (recombinant human IL-1α [2]): 0.35 nM | Potency (IC50), MRC-5 bioassay (recombinant human IL-1β [4]): 10 nM

B6: hIL-1a/bDVD3b-Ig (bispecific antibody, human IgG1, kappa)
heavy: not shown
light: ETTVTQSPASLSMAIGEKVTIRCITSTDIDVDMNWYQQKPGEPPKLLISQGNTLRPGVPSRFSSSGSGTDFVFIIENMLSEDVADYYCLQSDNLPLTFGAGTKLELKRTVAAPDIVMTQSQRFMSTSVGDRVSVTCKASQNVGTNIAWYQQKPGQSPRALIYSASYRYSGVPDRFTGSGSGTDFTLTISNVQSVDLAEYFCQQYTRYPLTFGGGTKLEIKRTVAAPSVFIFPPSDEQLKSGTASVVCLLNNFYPREAKVQWKVDNALQSGNSQESVTEQDSKDSTYSLSSTLTLSKADYEKHKVYACEVTHQGLSSPVTKSFNRGEC
Potency (IC50), MRC-5 bioassay (recombinant human IL-1α [2]): 0.7 nM

B7: hIL-1a/bDVD4b-Ig (bispecific antibody, human IgG1, kappa)
heavy: not shown
light: ETTVTQSPASLSMAIGEKVTIRCITSTDIDVDMNWYQQKPGEPPKLLISQGNTLRPGVPSRFSSSGSGTDFVFIIENMLSEDVADYYCLQSDNLPLTFGAGTKLELKRTVAAPSVFIFPPDIVMTQSQRFMSTSVGDRVSVTCKASQNVGTNIAWYQQKPGQSPRALIYSASYRYSGVPDRFTGSGSGTDFTLTISNVQSVDLAEYFCQQYTRYPLTFGGGTKLEIKRTVAAPSVFIFPPSDEQLKSGTASVVCLLNNFYPREAKVQWKVDNALQSGNSQESVTEQDSKDSTYSLSSTLTLSKADYEKHKVYACEVTHQGLSSPVTKSFNRGEC
Potency (IC50), MRC-5 bioassay (recombinant human IL-1α [2]): 0.35 nM | Potency (IC50), MRC-5 bioassay (recombinant human IL-1β [4]): 0.5 nM

B8: hIL-1a/bDVD5a-Ig (bispecific antibody, human IgG1, kappa)
heavy: not shown
light: QIVLTQSPALMSASPGEKVTMTCSASSSVNYMYWYQQKPRSSPKPWIYLTSNLASGVPARFSGSGSGTSYSLTISSMEAEDAATYYCQQWNSNPYTFGGGTKLEMKRTVAAPQIVLTQSPAIMSASPGEKVTITCSASSSVSYMHWFQQKPGASPKLWIYSTSNLASGVPARFSGSGSGTSYSLTVSRMEAEDAATYYCQQRSTYPYTFGGGTKLEIKRTVAAPSVFIFPPSDEQLKSGTASVVCLLNNFYPREAKVQWKVDNALQSGNSQESVTEQDSKDSTYSLSSTLTLSKADYEKHKVYACEVTHQGLSSPVTKSFNRGEC
Potency (IC50), MRC-5 bioassay (recombinant human IL-1α [2]): 2.6 nM | Potency (IC50), MRC-5 bioassay (recombinant human IL-1β [4]): 19 nM

B9: hIL-1a/bDVD6a-Ig (bispecific antibody, human IgG1, kappa)
heavy: not shown
light: QIVLTQSPALMSASPGEKVTMTCSASSSVNYMYWYQQKPRSSPKPWIYLTSNLASGVPARFSGSGSGTSYSLTISSMEAEDAATYYCQQWNSNPYTFGGGTKLEMKRTVAAPSVFIFPPQIVLTQSPAIMSASPGEKVTITCSASSSVSYMHWFQQKPGASPKLWIYSTSNLASGVPARFSGSGSGTSYSLTVSRMEAEDAATYYCQQRSTYPYTFGGGTKLEIKRTVAAPSVFIFPPSDEQLKSGTASVVCLLNNFYPREAKVQWKVDNALQSGNSQESVTEQDSKDSTYSLSSTLTLSKADYEKHKVYACEVTHQGLSSPVTKSFNRGEC
Potency (IC50), MRC-5 bioassay (recombinant human IL-1α [2]): 2.3 nM | Potency (IC50), MRC-5 bioassay (recombinant human IL-1β [4]): 70 nM

B10: hIL-1a/bDVD5b-Ig (bispecific antibody, human IgG1, kappa)
heavy: not shown
light: QIVLTQSPAIMSASPGEKVTITCSASSSVSYMHWFQQKPGASPKLWIYSTSNLASGVPARFSGSGSGTSYSLTVSRMEAEDAATYYCQQRSTYPYTFGGGTKLEIKRTVAAPQIVLTQSPALMSASPGEKVTMTCSASSSVNYMYWYQQKPRSSPKPWIYLTSNLASGVPARFSGSGSGTSYSLTISSMEAEDAATYYCQQWNSNPYTFGGGTKLEMKRTVAAPSVFIFPPSDEQLKSGTASVVCLLNNFYPREAKVQWKVDNALQSGNSQESVTEQDSKDSTYSLSSTLTLSKADYEKHKVYACEVTHQGLSSPVTKSFNRGEC
Potency (IC50), MRC-5 bioassay (recombinant human IL-1α [2]): 3.3 nM | Potency (IC50), MRC-5 bioassay (recombinant human IL-1β [4]): 0.25 nM

B11: hIL-1a/bDVD6b-Ig (bispecific antibody, human IgG1, kappa)
heavy: not shown
light: QIVLTQSPAIMSASPGEKVTITCSASSSVSYMHWFQQKPGASPKLWIYSTSNLASGVPARFSGSGSGTSYSLTVSRMEAEDAATYYCQQRSTYPYTFGGGTKLEIKRTVAAPSVFIFPPQIVLTQSPALMSASPGEKVTMTCSASSSVNYMYWYQQKPRSSPKPWIYLTSNLASGVPARFSGSGSGTSYSLTISSMEAEDAATYYCQQWNSNPYTFGGGTKLEMKRTVAAPSVFIFPPSDEQLKSGTASVVCLLNNFYPREAKVQWKVDNALQSGNSQESVTEQDSKDSTYSLSSTLTLSKADYEKHKVYACEVTHQGLSSPVTKSFNRGEC
Potency (IC50), MRC-5 bioassay (recombinant human IL-1α [2]): 1 nM | Potency (IC50), MRC-5 bioassay (recombinant human IL-1β [4]): 0.75 nM

B12: chimeric 3D12.E3 Ab (3D12.E3-VH-hCγ1 / 3D12.E3-VL-hCk) (antibody, V domains shown)
VH: QIQLVQSGPELKKPGETVKISCKASGYTFRNYGMNWVKQAPGKDLKRMAWINTYTGESTYADDFKGRFAFSLETSASTAYLQINNLKNEDTATYFCARGIYYYGSSYAMDYWGQGTSVTVSS
VL: NIQMTQTTSSLSASLGDRVTISCRASQDISNCLNWYQQKPDGTVKLLIYYTSRLHSGVPSRFSGSGSGTDYSLTISNLEQEDIATYFCQQGKTLPYAFGGGTKLEINR
Potency (IC50), MRC-5 bioassay (recombinant human IL-1α [5]): 0.7 nM
